From paper PMC11490884 (The Journal of Biological Chemistry, 2024)

Target: T1, ASAP1 SH3 domain (aa. 1083–1147) (mouse, UniProt Q9QWY8 1083-1147)
T1 sequence (looked up): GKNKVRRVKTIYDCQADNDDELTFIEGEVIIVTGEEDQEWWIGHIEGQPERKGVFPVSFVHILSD
Assay: ITC

Row | Binder | Kd | fold weakening of the interaction against the wild-type gAnkB peptide | also measured
1 | GIKKPVRRKLKE (peptide, UniProt Q01484 1699-1710, looked up) [12-residue peptide derived from gAnkB (aa. 1699–1710)] | ~190 nM | – | –
2 | GIKEPVRRKLKE (peptide, UniProt Q01484 1699-1710, looked up) [gAnkB peptide K1702E] | – | ~264 fold | –
3 | GIKKGVRRKLKE (peptide, UniProt Q01484 1699-1710, looked up) [gAnkB peptide P1703G] | – | – | fold decrease of the binding affinity against the wild-type gAnkB peptide: ~3 fold
4 | GIKKPVERKLKE (peptide, UniProt Q01484 1699-1710, looked up) [gAnkB peptide R1705E] | – | ~105 fold | –
5 | IPPDETQSTQKQHKPSLGIKKPVRRKLKEKQKQKEEGLQASAEKAELKKG (domain or fragment, human, UniProt Q01484 1682-1731, looked up) [gAnkB (aa. 1682–1731)] | ~140 nM | – | –
